Experimental data from the supplement of paper PMC12636428.

What follows are sequences tested on Saccharomyces cerevisiae (assay: transcriptional activation domain activity (GFP:mCherry ratio, weighted mean of sorted bins, harmonized to initial dataset scale) (arbitrary fluorescence ratio units); higher = stronger transcriptional activation). Conditions: beta-estradiol 1 µM; induction time 4 h.
Method in brief: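 Values are activation activity, found as the read-weighted mean of bin median fluorescence, averaged across barcodes and then mapped linearly onto the initial dataset scale. Barcoded protein tiles fused to an estradiol-inducible synthetic transcription factor were integrated at the URA3 locus of GFP-reporter yeast diploids. Cells were induced for 4 hours at 30 °C with 1 uM beta-estradiol in SC, sorted into 8 bins by GFP:mCherry ratio, and barcode-sequenced, with tiles under 50 reads discarded.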
“SPDQDPHRPKVESGGEEQEQLGPPKKKRRRQALNCTECKRRKIRCDRSQPCGP” was tested, and the “transcriptional activation domain activity” value was 18300.
For “ISLGDFIVTLNYLFCYFLMQAPSLKLKPTSLFFFFLCIWLDFVLCLLILLRVA”, the “transcriptional activation domain activity” value was 46400.
With “YPLLVCLLDLVKNNSLDDTGWLIGLGCTLWYENSIYIVRKAMELCLRAQEKID” the “transcriptional activation domain activity” value was 52000.
“QFFFFVLSFFFFVGFVGADDLCSFILFLLFFSTPFFFIGKASLLSSFFAFHST” was tested, and the “transcriptional activation domain activity” value was 51700.
With “KESPILVGLICIFNASTFLQMMFYAAISLPLNEDACFGVNFVQTLLWHISFCT” the “transcriptional activation domain activity” value was 74000.
In the case of “SKSESTHSSAKKADSGKRSGRSKPATSDGGPKGFDSKPSGEKSKKESSRSTKE”, the “transcriptional activation domain activity” value is reported as 36600.
“FLWGGRHGFVGFCIPLILLFFMLLSCISFCISILHFFFVLSFLLNFFCEFFLR” was tested, and the “transcriptional activation domain activity” value was 36100.
“MCEGDFCVFFCVCVCVCVCLCVLFCFLFWFLFWWLLFFFLVMLFLAVGVFVYI” was tested, and the “transcriptional activation domain activity” value was 35400.
For “HFLLLPSLFLFSSFLPFLTSLPPHSPFFFLSFLFFSPLFSLFFLFINSTHFLP”, the “transcriptional activation domain activity” value was 41700.
“MVWIRSKSPIKWLYIWLYYVRRPRINVASYTTKWVTIESELVFLAENFLDDKC” was tested, and the “transcriptional activation domain activity” value was 33300.
“MGFKDFPFVDFAVFFFFFFSPFFSSMFILSFIYLFWFDLGIGLVGVLLFFFCH” was tested, and the “transcriptional activation domain activity” value was 47500.
With “ERGTEEREKEREEGMRGRRGKRNRGRWKREGEEEGGEEEGRKGRKEKGRQGAE” the “transcriptional activation domain activity” value was 47700.
With “INSTVHNLCELVLLPELFGFCCFSMRFFVFIDLVGTLILPATVVYLFYLIIVV” the “transcriptional activation domain activity” value was 39400.
With “AKKAKQEATTEGGEEGSTGKTAKAKETPPTEQKEGGEKKAKATKARGKAGKEA” the “transcriptional activation domain activity” value was 27300.
In the case of “SDKKAGNDKEEKKEEKKADGSEEKGKKVKDAEKEKEDKKSQQSEKKADDNGDK”, the “transcriptional activation domain activity” value is reported as 25000.
For “FFEVGGVPRFQETVIAGGDNSVGRALSSPTVIYSGKHDGIALTIIRLLRPIWL”, the “transcriptional activation domain activity” value was 53400.
For “VYKRKILVLIYKIAHLTDLYLEVANGGPKLRLHLSALSFHTCAWKSKGLSIPE”, the “transcriptional activation domain activity” value was 35900.
With “TLRVDSLTGMIRIIRHVDFDGLPRPSGSGVITPFGIVFGGVCRGYWLWLWKVD” the “transcriptional activation domain activity” value was 35800.
For “EAEEGGAGKRKAGSPEDTEQQQESSEKSTESNHKPATKRSTVSERPSKGKRRS”, the “transcriptional activation domain activity” value was 11500.
In the case of “LLLHYKHEEFVGHEETDFVVMGFTKLLLCCISSLKSFKKPLNAGPLIERIFRK”, the “transcriptional activation domain activity” value is reported as 84700.
With “MSLLWIYFLSFFPFFCQNLTLLCFYAHIWTLRITPTFVLAFHLVYPLIIHLPV” the “transcriptional activation domain activity” value was 27100.
With “LLQMDKAGFVKDEITDVFALVVCRNLSLFHICAYILNVYRNYIMMVLEALRAQ” the “transcriptional activation domain activity” value was 64800.
For “CLLLAICCLYHVAFCIIVVLFWVAQVNAAPMEALQMVLAHVRYTFILSVSMVG”, the “transcriptional activation domain activity” value was 63500.
For “MTFVSEALITHRIDGGDIGVVNIFSKNKWRSKVYVRILVQICMRWVMMAIYLN”, the “transcriptional activation domain activity” value was 55700.
With “ELQKLLKFKVDDKKYPRFSPMFYPNNVKKDKLLFRVRLLVNILRVVLLGPSSL” the “transcriptional activation domain activity” value was 36100.
“KIHLVNLAQVSVFFIHRVLYGIIPLFEIKTCAYFPLLVSLWHMTYILFYIVMF” was tested, and the “transcriptional activation domain activity” value was 71200.
With “HMALVHLFAFLDRFALFGKLYRAAQVVNRVTSPYVVLAWTSLYSFSLRVVART” the “transcriptional activation domain activity” value was 52400.
“ILDDFFNDGACNEINVILDKAKVRRDFLDYFMPEKEVKAEGDRSIVYILSNPK” was tested, and the “transcriptional activation domain activity” value was 59200.
In the case of “SPMGSGSDEEEEERRRKRRKEKKRSKKSKRERSGSLSGSGSEGGGGKRKRHQD”, the “transcriptional activation domain activity” value is reported as 36000.
For “AYNLILIIRWCLFIITIYYCYTLVLYHHYKVNFKQLIRKSMSPIKNNNLIHQF”, the “transcriptional activation domain activity” value was 65300.
For “VLLVLPLFFSFSLYHPLRLHPFRLFFFFFFFFLCIFFYFSPFPSFSCHFLFSS”, the “transcriptional activation domain activity” value was 59100.
In the case of “LLGVLTLLLLYCNVVLITYHVPTWSRPLDIAFIHAPVRLFFILPLSLLFPYSL”, the “transcriptional activation domain activity” value is reported as 56100.
For “KGKSKERKTESASTSGSEAKESEAAPKEEKEDAKKEDDKKEKAEEKTEEKAEE”, the “transcriptional activation domain activity” value was 51500.
“MYHISIQLLSVFISPSTPLFPDFLQISISFHLYSFFLFAIVIFFYFICLFLFV” was tested, and the “transcriptional activation domain activity” value was 61100.
With “FGRSKAKRRAGRGFGTSGYGAGSSASNGGKDAKGGDTKGAENRYHDNKDEDND” the “transcriptional activation domain activity” value was 38200.
In the case of “SEEDEIKAGEEVPKKRRRRQALSCTECKRRKIKCDRQHPCGPCVRRTEADKCH”, the “transcriptional activation domain activity” value is reported as 52300.
For “RARCIPSAPTRRPLTRSTSTCRRPPRTTGSCWTSSRPSSTPKTSSSAAKPAPC”, the “transcriptional activation domain activity” value was 46200.
“WWLLGDSYESEIISLVILFQFWNNGALVNFGSAFRQAWWRNYLLVFVWSCFFI” was tested, and the “transcriptional activation domain activity” value was 17800.
With “IHISPFLSFLLFNTFLFFFDILLEYDQSGKSSCSVLWGIGWGCWWILFIGSLQ” the “transcriptional activation domain activity” value was 38800.
In the case of “ALTLVDPQGVLKCRIVLFCVIRGSVMVLGWWNYKLMHRWLLPGIIQCLSNIPV”, the “transcriptional activation domain activity” value is reported as 64500.
With “SGPSSNDELIEKGRMLVDELSEAGGGIKDGARNNTSSLYLHLVRVSIDKFSHA” the “transcriptional activation domain activity” value was 18900.
With “FPCFFISLFPCLLSLSISLFPCLVISLSFFLISLFPFLFLFFPFLSFSLFPYF” the “transcriptional activation domain activity” value was 68500.
“GILVLLLVYSNLVLLIYHPPTSKRPLDHLFIHVPIRLFLILPLSLMFPYSLLY” was tested, and the “transcriptional activation domain activity” value was 43900.
In the case of “MLVRCPHLILNHKMPVLYLLFYLHIFHSLLLPFCIYASFFSFILFYQIGIFLL”, the “transcriptional activation domain activity” value is reported as 48400.
“YMEIVCEKQLLVVSKVNRGWLYMAITQADLVYWATLSLASHYRDSKSVALTYF” was tested, and the “transcriptional activation domain activity” value was 62500.
With “MYCMRYFVPLLLLPFPDSPPIFVILFLISFFLHQKPCIYCTLLLFALFSSTCF” the “transcriptional activation domain activity” value was 57700.
In the case of “VRYHVKNSPISGWVYEAKHVSDILATNTLLARIVIAKVQDEQRLVHLLQCLPI”, the “transcriptional activation domain activity” value is reported as 68800.
For “MSLFSILYFYYTICFICFLTFLTIKDLHIYLLLKFQITIFLFCYFFVCFLSPL”, the “transcriptional activation domain activity” value was 76600.
For “AHYLNHNPHQPSMGFDQALGLKLSPSSSGLLSTNESNAIEQFLDNLISQDMMS”, the “transcriptional activation domain activity” value was 110000.
With “MPVLFVFFSSFHSFIFLFFFYYGWLKVVIQVVMRLWGYKSLVGFFFLHGLLVC” the “transcriptional activation domain activity” value was 66500.
“SSSSEPIVLPVPVPVKRGRGRPKGAKNKPKLCEEKKQEEEEERERERERERGT” was tested, and the “transcriptional activation domain activity” value was 12200.
With “MIILGRMGYSHVLLLPFFNSICFSFLFLPHSLCCLHFNSFYTYFLLLPHPHLF” the “transcriptional activation domain activity” value was 61900.
For “WQTALVHKHAQRVIHSTLEVVDQLVPKHYDHQLLRRCWGALNLIMTYVSFMCV”, the “transcriptional activation domain activity” value was 41400.
For “YNGLPRFKWFISTVWVIYAGSCLLPFAGMVGTQILPLNRCIGVFKKPYPAILF”, the “transcriptional activation domain activity” value was 63300.
With “MYKSYIFFYLPLLFNCFIMSFFFLYEMPFFYLGRMLHFLLSLISGSWFFFYLF” the “transcriptional activation domain activity” value was 50900.
For “SSPNTGGGLFGSGGTTSAFGANTTSGFGSTSNTGAFGAKTGAFGATTSAGGGL”, the “transcriptional activation domain activity” value was 35800.
With “FMVLFFITLFSFLVLIPFPWSFVSRYVYSSMFMFCIFFSAFLRFHLLLLSFCR” the “transcriptional activation domain activity” value was 54900.
In the case of “LGFIEIVRVCPRFGILFLCMALSFISIVVDLLSVTPVIPIGVINPFWKFAFVF”, the “transcriptional activation domain activity” value is reported as 58100.
For “PDYLFSRLFVCAFISLFVSLSFLQLGNGLRDLQFRVFSIFWVSILPAIIMSQI”, the “transcriptional activation domain activity” value was 52200.
With “MAPKAPEASPPKRGRGRPRKAESEKKTKAYEPTGRPRGRPKGSGGVKKSVAAT” the “transcriptional activation domain activity” value was 19600.
With “VLMDERISLKNDLSSQDVALFLSLASSVASGSLLLRPPNVWIVVWTYLHRRHG” the “transcriptional activation domain activity” value was 66900.
For “TAPFPILEDQCPALNLDRSNNDLLLQNNISFPKGSDLQAIQLTPISGDYSTYV”, the “transcriptional activation domain activity” value was 92600.
For “EFFVLWVVQAIIGSRLEMYWAVLMICVLRCNQSYVSNACREVWLSWIIHGWVQ”, the “transcriptional activation domain activity” value was 61500.
For “LMLCAGHGILIALVEQSGIDIKPILVFCLITYTLCQIGMCYSCYLYDFILLFF”, the “transcriptional activation domain activity” value was 50100.
With “ADEEGEGEAEEKPKRKRATKKKVEEEDDEEEEEEEKPKPKARAKAGSSKKAAT” the “transcriptional activation domain activity” value was 21100.
In the case of “EKVKEEEEVKYKGKEQEEVKDKGKEQEQEQEQEQEQEQEQEAPAPPRTTTSTA”, the “transcriptional activation domain activity” value is reported as 40900.
With “ARWSVAKVFYILGRYYGLFYMIVQLYISLTLDLALNVQRLLLVLDLVWRCCLY” the “transcriptional activation domain activity” value was 54000.
For “MSWPFPFFFLLFRLFLSLFRGGCFWVQIFVFIPEYLVYSILFSFFFTVIYLFV”, the “transcriptional activation domain activity” value was 40400.
In the case of “LIIPIIMDHLYPVPYMAFWDVSCFVNKVYFMQIVWLFNLPFLLHLLITLICYP”, the “transcriptional activation domain activity” value is reported as 68100.
With “PCSHTILNYGMTLSVSLVVVFRVSHMSFLSSSELSFLRGYHMMLASAFFLFVF” the “transcriptional activation domain activity” value was 36600.
In the case of “FKEGVSLTVLDELYRWQKYAYGCDEIIFNPIFTWWKKGPISLQLRNFVWSIAP”, the “transcriptional activation domain activity” value is reported as 57100.
In the case of “MILWNWILEFHSQTSFTLLLFILFHFIFFAYVPLLTSCYSHLFSFSFSTVSFI”, the “transcriptional activation domain activity” value is reported as 46900.
“MAKCIVTQTFLAASKTKTGYTIHQIRYTMTFWEIYENLLAIYLLIHPQWHLSF” was tested, and the “transcriptional activation domain activity” value was 40200.
For “RIRKFTVLGATIVEPFMECVLNGVLGAFGFWVFFGVPRLWFFGWHLCYWLLVD”, the “transcriptional activation domain activity” value was 86000.
